Target: recombinant Motavizumab human IgE (rMota-hIgE) (human) (UniProt P01854)
Assay: hIgE binding ELISA

Sequence of recombinant Motavizumab human IgE (rMota-hIgE) (human) (P01854 other isoform, or with tags, fused parts or gaps limits assumed, form in doubt): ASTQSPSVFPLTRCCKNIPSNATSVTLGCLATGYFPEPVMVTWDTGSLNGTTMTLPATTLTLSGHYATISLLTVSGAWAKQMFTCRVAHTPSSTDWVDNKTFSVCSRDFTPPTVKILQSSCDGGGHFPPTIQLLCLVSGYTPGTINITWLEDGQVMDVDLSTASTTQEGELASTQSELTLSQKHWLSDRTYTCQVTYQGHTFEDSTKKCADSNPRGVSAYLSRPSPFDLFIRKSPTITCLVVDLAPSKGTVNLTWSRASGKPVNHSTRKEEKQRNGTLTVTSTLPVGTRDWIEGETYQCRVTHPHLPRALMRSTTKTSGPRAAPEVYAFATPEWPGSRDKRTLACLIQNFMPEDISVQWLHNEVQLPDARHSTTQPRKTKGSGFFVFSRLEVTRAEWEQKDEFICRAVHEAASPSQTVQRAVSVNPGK

B1: CL-2C mAb 1 (antibody, V domains shown)
VH: QVQLVQSGAEVMKPGSSVKVSCKASGYTFSWYWLEWVRQAPGHGLEWMGEIDPGTFTTHYNEKFKARVTFTADTSTSTAYMELSSLRSEDTAVYYCARFSHFSGSHYDYFDYWGQGTLVTVSS
VL: EIVMTQSPATLSVSPGERATLSCRASQHIGTNIHWYQQKPGQAPRLLIYYASESISGIPARFSGSGSGTEFTLTISSLQSEDFAVYYCQQSWSHPTTFGGGTKVEIK
Ratio OD450 pH 7.4/pH 6: 6.94

B2: CL-2C mAb 19 (antibody, V domains shown)
VH: QVQLVQSGAEVMKPGSSVKVSCKASGYTFSWYHLEWVRQAPGHGLEWMGEIDPGTFTTNYNEKFKARVTFTADTSTSTAYMELSSLRSEDTAVYYCARFSHFSGHNYDYFDYWGQGTLVTVSS
VL: EIVMTQSPATLSVSPGERATLSCRASQSIGTNIHWYQQKPGQAPRLLIYHASESISGIPARFSGSGSGTEFTLTISSLQSEDFAVYYCQQSDSHPTTFGGGTKVEIK
Ratio OD450 pH 7.4/pH 6: 1.04

B3: CL-2C mAb 14 (antibody, V domains shown)
VH: QVQLVQSGAEVMKPGSSVKVSCKASGYTFSWYHLEWVRQAPGHGLEWMGEIDPGTFTTNYNEKFKARVTFTADTSTSTAYMELSSLRSEDTAVYYCARFSHFSGHNYDYFDYWGQGTLVTVSS
VL: EIVMTQSPATLSVSPGERATLSCRASQSIGTNIHWYQQKPGQAPRLLIYHASESISGIPARFSGSGSGTEFTLTISSLQSEDFAVYYCQQSWSHPTTFGGGTKVEIK
Ratio OD450 pH 7.4/pH 6: 1.53

B4: CL-2C mAb 17 (antibody, V domains shown)
VH: QVQLVQSGAEVMKPGSSVKVSCKASGYTFSWYHLEWVRQAPGHGLEWMGEIDPGTFTTNYNEKFKARVTFTADTSTSTAYMELSSLRSEDTAVYYCARFSHFSGSNHDYFDYWGQGTLVTVSS
VL: EIVMTQSPATLSVSPGERATLSCRASQSIGTNIHWYQQKPGQAPRLLIYHASESISGIPARFSGSGSGTEFTLTISSLQSEDFAVYYCQQSDSHPTTFGGGTKVEIK
Ratio OD450 pH 7.4/pH 6: 1.03

B5: CL-2C mAb 11 (antibody, V domains shown)
VH: QVQLVQSGAEVMKPGSSVKVSCKASGYTFSWYWLEWVRQAPGHGLEWMGEIDPGTFTTHYNEKFKARVTFTADTSTSTAYMELSSLRSEDTAVYYCARFSHFSGSHYDYFDYWGQGTLVTVSS
VL: EIVMTQSPATLSVSPGERATLSCRASQSIGTNIHWYQQKPGQAPRLLIYHASESISGIPARFSGSGSGTEFTLTISSLQSEDFAVYYCQQSWSHPTTFGGGTKVEIK
Ratio OD450 pH 7.4/pH 6: 5.9

B6: CL-2C mAb 16 (antibody, V domains shown)
VH: QVQLVQSGAEVMKPGSSVKVSCKASGYTFSWYWLEWVRQAPGHGLEWMGEIDPGTFTTHYNEKFKARVTFTADTSTSTAYMELSSLRSEDTAVYYCARFSHFSGSHYDYFDYWGQGTLVTVSS
VL: EIVMTQSPATLSVSPGERATLSCRASQSIGTNIHWYQQKPGQAPRLLIYHASESISGIPARFSGSGSGTEFTLTISSLQSEDFAVYYCQQSDSHPTTFGGGTKVEIK
Ratio OD450 pH 7.4/pH 6: 2.24

B7: CL-2C mAb 10 (antibody, V domains shown)
VH: QVQLVQSGAEVMKPGSSVKVSCKASGYTFSWYWLEWVRQAPGHGLEWMGEIDPGTFTTNYNEKFKARVTFTADTSTSTAYMELSSLRSEDTAVYYCARFSHFSGSNYDYFDYWGQGTLVTVSS
VL: EIVMTQSPATLSVSPGERATLSCRASQSIGTNIHWYQQKPGQAPRLLIYHASESISGIPARFSGSGSGTEFTLTISSLQSEDFAVYYCHQSDSWPTTFGGGTKVEIK
Ratio OD450 pH 7.4/pH 6: 2.77

B8: CL-2C mAb 27 (antibody, V domains shown)
VH: QVQLVQSGAEVMKPGSSVKVSCKASGYTFSWYHLEWVRQAPGHGLEWMGEIDPGTFTTNYNEKFKARVTFTADTSTSTAYMELSSLRSEDTAVYYCARFSHFSGSNHDYFDYWGQGTLVTVSS
VL: EIVMTQSPATLSVSPGERATLSCRASQSIGTNIHWYQQKPGQAPRLLIYHASESISGIPARFSGSGSGTEFTLTISSLQSEDFAVYYCQQSWSWPTTFGGGTKVEIK
Ratio OD450 pH 7.4/pH 6: 19.4

B9: CL-2C mAb 7 (antibody, V domains shown)
VH: QVQLVQSGAEVMKPGSSVKVSCKASGYTFSWYHLEWVRQAPGHGLEWMGEIDPGTFTTNYNEKFKARVTFTADTSTSTAYMELSSLRSEDTAVYYCARFSHFSGSNHDYFDYWGQGTLVTVSS
VL: EIVMTQSPATLSVSPGERATLSCRASQSIGTNIHWYQQKPGQAPRLLIYHASESISGIPARFSGSGSGTEFTLTISSLQSEDFAVYYCHQSDSWPTTFGGGTKVEIK
Ratio OD450 pH 7.4/pH 6: 1.43

B10: CL-2C mAb 26 (antibody, V domains shown)
VH: QVQLVQSGAEVMKPGSSVKVSCKASGYTFSWYWLEWVRQAPGHGLEWMGEIDPGTFTTHYNEKFKARVTFTADTSTSTAYMELSSLRSEDTAVYYCARFSHFSGSHYDYFDYWGQGTLVTVSS
VL: EIVMTQSPATLSVSPGERATLSCRASQSIGTNIHWYQQKPGQAPRLLIYHASESISGIPARFSGSGSGTEFTLTISSLQSEDFAVYYCQQSWSWPTTFGGGTKVEIK
Ratio OD450 pH 7.4/pH 6: 44.6

B11: CL-2C mAb 13 (antibody, V domains shown)
VH: QVQLVQSGAEVMKPGSSVKVSCKASGYTFSWYHLEWVRQAPGHGLEWMGEIDPGTFTTNYNEKFKARVTFTADTSTSTAYMELSSLRSEDTAVYYCARFSHFSGSHYDYFDYWGQGTLVTVSS
VL: EIVMTQSPATLSVSPGERATLSCRASQSIGTNIHWYQQKPGQAPRLLIYHASESISGIPARFSGSGSGTEFTLTISSLQSEDFAVYYCQQSWSHPTTFGGGTKVEIK
Ratio OD450 pH 7.4/pH 6: 1.28

B12: CL-2C mAb 5 (antibody, V domains shown)
VH: QVQLVQSGAEVMKPGSSVKVSCKASGYTFSWYWLEWVRQAPGHGLEWMGEIDPGTFTTNYNEKFKARVTFTADTSTSTAYMELSSLRSEDTAVYYCARFSHFSGSNYDYFDYWGQGTLVTVSS
VL: EIVMTQSPATLSVSPGERATLSCRASQHIGTNIHWYQQKPGQAPRLLIYYASESISGIPARFSGSGSGTEFTLTISSLQSEDFAVYYCQQSWSHPTTFGGGTKVEIK
Ratio OD450 pH 7.4/pH 6: 0.73

B13: CL-2C mAb 6 (antibody, V domains shown)
VH: QVQLVQSGAEVMKPGSSVKVSCKASGYTFSWYWLEWVRQAPGHGLEWMGEIDPGTFTTHYNEKFKARVTFTADTSTSTAYMELSSLRSEDTAVYYCARFSHFSGSHYDYFDYWGQGTLVTVSS
VL: EIVMTQSPATLSVSPGERATLSCRASQSIGTNIHWYQQKPGQAPRLLIYHASESISGIPARFSGSGSGTEFTLTISSLQSEDFAVYYCHQSDSWPTTFGGGTKVEIK
Ratio OD450 pH 7.4/pH 6: 10.2

B14: CL-2C mAb 15 (antibody, V domains shown)
VH: QVQLVQSGAEVMKPGSSVKVSCKASGYTFSWYWLEWVRQAPGHGLEWMGEIDPGTFTTNYNEKFKARVTFTADTSTSTAYMELSSLRSEDTAVYYCARFSHFSGSNYDYFDYWGQGTLVTVSS
VL: EIVMTQSPATLSVSPGERATLSCRASQSIGTNIHWYQQKPGQAPRLLIYHASESISGIPARFSGSGSGTEFTLTISSLQSEDFAVYYCQQSWSHPTTFGGGTKVEIK
Ratio OD450 pH 7.4/pH 6: 4.07

B15: CL-2C mAb 4 (antibody, V domains shown)
VH: QVQLVQSGAEVMKPGSSVKVSCKASGYTFSWYHLEWVRQAPGHGLEWMGEIDPGTFTTNYNEKFKARVTFTADTSTSTAYMELSSLRSEDTAVYYCARFSHFSGHNYDYFDYWGQGTLVTVSS
VL: EIVMTQSPATLSVSPGERATLSCRASQHIGTNIHWYQQKPGQAPRLLIYYASESISGIPARFSGSGSGTEFTLTISSLQSEDFAVYYCQQSWSHPTTFGGGTKVEIK
Ratio OD450 pH 7.4/pH 6: 5.26

B16: CL-2C mAb 20 (antibody, V domains shown)
VH: QVQLVQSGAEVMKPGSSVKVSCKASGYTFSWYWLEWVRQAPGHGLEWMGEIDPGTFTTNYNEKFKARVTFTADTSTSTAYMELSSLRSEDTAVYYCARFSHFSGSNYDYFDYWGQGTLVTVSS
VL: EIVMTQSPATLSVSPGERATLSCRASQSIGTNIHWYQQKPGQAPRLLIYHASESISGIPARFSGSGSGTEFTLTISSLQSEDFAVYYCQQSDSHPTTFGGGTKVEIK
Ratio OD450 pH 7.4/pH 6: 5.46

B17: CL-2C mAb 3 (antibody, V domains shown)
VH: QVQLVQSGAEVMKPGSSVKVSCKASGYTFSWYHLEWVRQAPGHGLEWMGEIDPGTFTTNYNEKFKARVTFTADTSTSTAYMELSSLRSEDTAVYYCARFSHFSGSHYDYFDYWGQGTLVTVSS
VL: EIVMTQSPATLSVSPGERATLSCRASQHIGTNIHWYQQKPGQAPRLLIYYASESISGIPARFSGSGSGTEFTLTISSLQSEDFAVYYCQQSWSHPTTFGGGTKVEIK
Ratio OD450 pH 7.4/pH 6: 6.44

B18: CL-2C mAb 9 (antibody, V domains shown)
VH: QVQLVQSGAEVMKPGSSVKVSCKASGYTFSWYHLEWVRQAPGHGLEWMGEIDPGTFTTNYNEKFKARVTFTADTSTSTAYMELSSLRSEDTAVYYCARFSHFSGHNYDYFDYWGQGTLVTVSS
VL: EIVMTQSPATLSVSPGERATLSCRASQSIGTNIHWYQQKPGQAPRLLIYHASESISGIPARFSGSGSGTEFTLTISSLQSEDFAVYYCHQSDSWPTTFGGGTKVEIK
Ratio OD450 pH 7.4/pH 6: 1.45

B19: CL-2C mAb 2 (antibody, V domains shown)
VH: QVQLVQSGAEVMKPGSSVKVSCKASGYTFSWYHLEWVRQAPGHGLEWMGEIDPGTFTTNYNEKFKARVTFTADTSTSTAYMELSSLRSEDTAVYYCARFSHFSGSNHDYFDYWGQGTLVTVSS
VL: EIVMTQSPATLSVSPGERATLSCRASQHIGTNIHWYQQKPGQAPRLLIYYASESISGIPARFSGSGSGTEFTLTISSLQSEDFAVYYCQQSWSHPTTFGGGTKVEIK
Ratio OD450 pH 7.4/pH 6: 7.11

B20: CL-2C mAb 18 (antibody, V domains shown)
VH: QVQLVQSGAEVMKPGSSVKVSCKASGYTFSWYHLEWVRQAPGHGLEWMGEIDPGTFTTNYNEKFKARVTFTADTSTSTAYMELSSLRSEDTAVYYCARFSHFSGSHYDYFDYWGQGTLVTVSS
VL: EIVMTQSPATLSVSPGERATLSCRASQSIGTNIHWYQQKPGQAPRLLIYHASESISGIPARFSGSGSGTEFTLTISSLQSEDFAVYYCQQSDSHPTTFGGGTKVEIK
Ratio OD450 pH 7.4/pH 6: 0.97

B21: CL-2C mAb 12 (antibody, V domains shown)
VH: QVQLVQSGAEVMKPGSSVKVSCKASGYTFSWYHLEWVRQAPGHGLEWMGEIDPGTFTTNYNEKFKARVTFTADTSTSTAYMELSSLRSEDTAVYYCARFSHFSGSNHDYFDYWGQGTLVTVSS
VL: EIVMTQSPATLSVSPGERATLSCRASQSIGTNIHWYQQKPGQAPRLLIYHASESISGIPARFSGSGSGTEFTLTISSLQSEDFAVYYCQQSWSHPTTFGGGTKVEIK
Ratio OD450 pH 7.4/pH 6: 1.54

B22: CL-2C mAb 8 (antibody, V domains shown)
VH: QVQLVQSGAEVMKPGSSVKVSCKASGYTFSWYHLEWVRQAPGHGLEWMGEIDPGTFTTNYNEKFKARVTFTADTSTSTAYMELSSLRSEDTAVYYCARFSHFSGSHYDYFDYWGQGTLVTVSS
VL: EIVMTQSPATLSVSPGERATLSCRASQSIGTNIHWYQQKPGQAPRLLIYHASESISGIPARFSGSGSGTEFTLTISSLQSEDFAVYYCHQSDSWPTTFGGGTKVEIK
Ratio OD450 pH 7.4/pH 6: 1.12
